Assay results from patent US20140109263A1.

Columns and labels:
[1] = molecular target: receptor proteins in midgut brush border membrane vesicles (BBMV's) from fall armyworm (FAW; Spodoptera frugiperda) larvae (Spodoptera frugiperda); experiment: heterologous competition: 1,000 nM unlabeled Cry1Da against 125I Cry1Ea on FAW BBMV's, FIG. 4
[2] = molecular target: receptor proteins in midgut brush border membrane vesicles (BBMV's) from fall armyworm (FAW; Spodoptera frugiperda) larvae (Spodoptera frugiperda); experiment: homologous competition: unlabeled Cry1Ea against 0.5 nM 125I Cry1Ea on FAW BBMV's (150 ug/ml), FIG. 1
[3] = molecular target: receptor proteins in midgut brush border membrane vesicles (BBMV's) from fall armyworm (FAW; Spodoptera frugiperda) larvae (Spodoptera frugiperda); experiment: homologous competition: unlabeled Cry1Ea against 125I Cry1Ea on FAW BBMV's, FIG. 3

| Substance | percent displacement of ^125I Cry1Ea [1] | IC50 [2] | IC50 [3] |
| --- | --- | --- | --- |
| Cry1Da protein, trypsinized (protease-processed Cry1Da) (from UniProt P19415 28-603) | 40% |  |  |
| Cry1Ea protein, trypsin-cleaved activated form (protease-processed Cry1Ea) (from UniProt Q57458 1-612) |  | 1 nM | 1 nM |
